Reference: paper doi:10.1101/2024.12.31.630886

Columns and labels:
[1] = molecular target: IatT, GCN5-related N-acetyltransferase (GNAT) of the iat lasso peptide BGC (Actinosynnema mirum DSM 43827); test: ITC
[2] = molecular target: IatT, GCN5-related N-acetyltransferase (GNAT) of the iat lasso peptide BGC (Actinosynnema mirum DSM 43827); test: cryo-EM structure

mirusin C (compound 3), diacetylated lasso peptide
stoichiometry N (molar equivalent) [1]: 1

mirusin B (compound 2), monoacetylated lasso peptide
stoichiometry N (molar equivalent) [1]: 1

IatT, GCN5-related N-acetyltransferase (GNAT) of the iat lasso peptide BGC (enzyme)
stoichiometry N [2]: 14
